This assay has as its target T1, Centromere protein F (CENPF) (human, UniProt P49454 1-3111, limits assumed).
T1 construct: also called CENF; PRO 1779
As to the kind of experiment: co-immunoprecipitation.

T1 sequence (P49454 1-3111 limits assumed): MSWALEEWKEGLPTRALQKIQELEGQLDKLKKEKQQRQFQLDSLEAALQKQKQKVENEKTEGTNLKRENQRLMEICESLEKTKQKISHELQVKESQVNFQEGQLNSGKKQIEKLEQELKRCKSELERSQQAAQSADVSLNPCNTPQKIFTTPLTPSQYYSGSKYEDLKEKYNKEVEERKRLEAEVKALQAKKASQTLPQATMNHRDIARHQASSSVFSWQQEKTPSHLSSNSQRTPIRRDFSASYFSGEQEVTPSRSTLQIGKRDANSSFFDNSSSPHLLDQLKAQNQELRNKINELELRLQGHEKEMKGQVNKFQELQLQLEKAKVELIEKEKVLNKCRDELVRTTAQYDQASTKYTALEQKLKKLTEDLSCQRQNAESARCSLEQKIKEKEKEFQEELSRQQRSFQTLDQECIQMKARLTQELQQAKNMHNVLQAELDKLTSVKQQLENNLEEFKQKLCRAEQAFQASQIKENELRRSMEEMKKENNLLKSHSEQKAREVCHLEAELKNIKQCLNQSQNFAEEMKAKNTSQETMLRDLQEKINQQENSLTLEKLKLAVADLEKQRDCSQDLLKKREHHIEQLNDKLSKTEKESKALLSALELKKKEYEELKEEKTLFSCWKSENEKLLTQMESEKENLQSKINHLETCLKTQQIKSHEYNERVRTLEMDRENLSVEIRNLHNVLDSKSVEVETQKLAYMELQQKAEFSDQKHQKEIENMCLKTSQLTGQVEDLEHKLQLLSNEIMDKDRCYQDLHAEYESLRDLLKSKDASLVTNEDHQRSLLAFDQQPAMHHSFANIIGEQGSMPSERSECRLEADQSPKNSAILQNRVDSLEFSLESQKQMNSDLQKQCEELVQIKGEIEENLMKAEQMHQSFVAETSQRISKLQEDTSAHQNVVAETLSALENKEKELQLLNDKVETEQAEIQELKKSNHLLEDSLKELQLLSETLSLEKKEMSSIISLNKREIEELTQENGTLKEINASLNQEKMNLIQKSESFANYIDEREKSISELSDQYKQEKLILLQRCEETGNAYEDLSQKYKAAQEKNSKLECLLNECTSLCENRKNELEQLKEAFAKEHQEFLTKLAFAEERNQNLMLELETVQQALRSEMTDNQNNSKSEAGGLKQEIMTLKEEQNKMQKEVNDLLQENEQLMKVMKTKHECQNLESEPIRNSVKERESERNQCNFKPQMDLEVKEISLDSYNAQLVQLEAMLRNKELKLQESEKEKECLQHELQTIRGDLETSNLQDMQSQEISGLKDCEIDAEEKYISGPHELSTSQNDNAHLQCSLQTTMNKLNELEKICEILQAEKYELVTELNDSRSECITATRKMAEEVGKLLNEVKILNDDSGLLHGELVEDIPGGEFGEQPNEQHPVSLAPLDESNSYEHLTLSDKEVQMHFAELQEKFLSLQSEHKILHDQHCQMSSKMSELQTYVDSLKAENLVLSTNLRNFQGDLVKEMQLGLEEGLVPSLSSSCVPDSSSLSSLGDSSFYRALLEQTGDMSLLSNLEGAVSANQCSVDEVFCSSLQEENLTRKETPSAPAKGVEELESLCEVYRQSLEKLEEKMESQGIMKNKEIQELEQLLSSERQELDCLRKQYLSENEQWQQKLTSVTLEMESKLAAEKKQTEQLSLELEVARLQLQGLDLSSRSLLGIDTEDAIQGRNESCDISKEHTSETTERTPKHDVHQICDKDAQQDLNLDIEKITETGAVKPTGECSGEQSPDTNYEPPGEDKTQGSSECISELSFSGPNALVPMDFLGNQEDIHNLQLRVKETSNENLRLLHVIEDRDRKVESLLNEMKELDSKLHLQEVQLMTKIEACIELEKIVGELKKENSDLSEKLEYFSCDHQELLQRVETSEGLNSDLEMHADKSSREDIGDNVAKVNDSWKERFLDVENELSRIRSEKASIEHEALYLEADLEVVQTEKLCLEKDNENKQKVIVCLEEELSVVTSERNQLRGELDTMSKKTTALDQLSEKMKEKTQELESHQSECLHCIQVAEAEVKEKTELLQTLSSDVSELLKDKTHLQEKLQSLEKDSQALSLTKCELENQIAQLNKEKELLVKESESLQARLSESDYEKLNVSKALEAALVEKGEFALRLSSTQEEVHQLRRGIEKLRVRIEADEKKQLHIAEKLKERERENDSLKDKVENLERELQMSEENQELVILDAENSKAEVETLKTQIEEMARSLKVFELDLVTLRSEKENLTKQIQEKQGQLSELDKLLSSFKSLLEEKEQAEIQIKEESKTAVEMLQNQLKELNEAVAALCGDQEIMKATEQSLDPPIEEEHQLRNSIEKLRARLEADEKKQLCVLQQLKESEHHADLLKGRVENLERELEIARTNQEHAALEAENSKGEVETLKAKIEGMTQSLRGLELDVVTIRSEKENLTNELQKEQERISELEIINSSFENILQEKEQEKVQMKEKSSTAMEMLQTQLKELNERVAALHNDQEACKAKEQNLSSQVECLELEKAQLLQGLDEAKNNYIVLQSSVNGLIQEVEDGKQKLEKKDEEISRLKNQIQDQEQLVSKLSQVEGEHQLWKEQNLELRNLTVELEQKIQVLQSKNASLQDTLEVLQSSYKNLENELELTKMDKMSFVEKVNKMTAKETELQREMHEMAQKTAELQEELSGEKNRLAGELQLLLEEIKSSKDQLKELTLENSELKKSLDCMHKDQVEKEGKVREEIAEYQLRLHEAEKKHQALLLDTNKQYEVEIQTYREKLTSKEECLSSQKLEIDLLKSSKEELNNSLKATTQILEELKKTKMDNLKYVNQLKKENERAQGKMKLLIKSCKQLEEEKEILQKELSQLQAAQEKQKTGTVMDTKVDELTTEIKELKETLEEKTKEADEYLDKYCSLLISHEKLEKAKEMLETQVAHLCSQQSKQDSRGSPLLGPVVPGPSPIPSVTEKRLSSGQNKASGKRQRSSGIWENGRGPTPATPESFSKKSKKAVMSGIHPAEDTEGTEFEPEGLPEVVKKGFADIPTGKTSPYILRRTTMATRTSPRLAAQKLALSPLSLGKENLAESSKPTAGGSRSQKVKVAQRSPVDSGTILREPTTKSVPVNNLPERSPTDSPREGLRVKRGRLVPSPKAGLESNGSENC

B1: Forkhead box protein M1 (FOXM1) (other)
chain: MKTSPRRPLILKRRRLPLPVQNAPSETSEEEPKRSPAQQESNQAEASKEVAESNSCKFPAGIKIINHPTMPNTQVVAIPNNANIHSIITALTAKGKESGSSGPNKFILISCGGAPTQPPGLRPQTQTSYDAKRTEVTLETLGPKPAARDVNLPRPPGALCEQKRETCDGEAAGCTINNSLSNIQWLRKMSSDGLGSRSIKQEMEEKENCHLEQRQVKVEEPSRPSASWQNSVSERPPYSYMAMIQFAINSTERKRMTLKDIYTWIEDHFPYFKHIAKPGWKNSIRHNLSLHDMFVRETSANGKVSFWTIHPSANRYLTLDQVFKQQQKRPNPELRRNMTIKTELPLGARRKMKPLLPRVSSYLVPIQFPVNQSLVLQPSVKVPLPLAASLMSSELARHSKRVRIAPKVLLAEEGIAPLSSAGPGKEEKLLFGEGFSPLLPVQTIKEEEIQPGEEMPHLARPIKVESPPLEEWPSPAPSFKEESSHSWEDSSQSPTPRPKKSYSGLRSPTRCVSEMLVIQHRERRERSRSRRKQHLLPPCVDEPELLFSEGPSTSRWAAELPFPADSSDPASQLSYSQEVGGPFKTPIKETLPISSTPSKSVLPRTPESWRLTPPAKVGGLDFSPVQTSQGASDPLPDPLGLMDLSTTPLQSAPPLESPQRLLSSEPLDLISVPFGNSSPSDIDVPKPGSPEPQVSGLAANRSLTEGLVLDTMNDSLSKILLDISFPGLDEDPLGPDNINWSQFIPELQ
notes: also called FKHL16; FOXM1B
Consider B1, for which the binding result is listed as “no binding”.
